Like-named read-outs stand apart in the source and are kept apart here.
Legend:
FUS wild-type [1] = target: T1, FUS wild-type (UniProt P35637 1-526); test: fluorescence anisotropy
FUS wild-type [2] = target: T1, FUS wild-type; test: single-molecule fluorescence
FUS Y>S = FUS Y>S (UniProt P35637 1-526, Y6S;Y14S;Y17S;Y25S;Y33S;Y38S;Y41S;Y50S;Y55S;Y58S;Y66S;Y75S;Y81S;Y91S;Y97S;Y100S; …); test: single-molecule fluorescence
FUS wild-type [3] = target: T1, FUS wild-type; test: single-molecule fluorescence; remark: listed apart in the source

B1: U40 RNA (ssRNA)
RNA: UUUUUUUUUUUUUUUUUUUUUUUUUUUUUUUUUUUUUUUU
Work on B1 yielded a Kd (FUS wild-type [1]) of roughly 5 nM.

B2: pdPAR22 (mixed)
DNA 1: TGGCGACGGCAGCGAGGC
DNA 2: GCCTCGCTGCCGTCGCCA
modifications: PAR 22-mer joined to DNA strand 1 by alkyne-azide click; PAR not part of printed strand
B2: binds (FUS wild-type [2]); binds (FUS Y>S).

B3: pdU50 RNA (mixed)
RNA 1: UUUUUUUUUUUUUUUUUUUUUUUUUUUUUUUUUUUUUUUUUUUUUUUUUUGCCUCGCUGCCGUCGCCA
RNA 2: UGGCGACGGCAGCGAGGC
B3: binds (FUS wild-type [3]).

B4: pdPAR9 (mixed)
DNA 1: TGGCGACGGCAGCGAGGC
DNA 2: GCCTCGCTGCCGTCGCCA
modifications: PAR 9-mer joined to DNA strand 1 by alkyne-azide click; PAR not part of printed strand
B4: binds (FUS wild-type [2]).
